From patent publication US20070254831A1 (published 2007)
Like-named read-outs stand apart in the source and are kept apart here. Bridge positions count the residues as written; N and C are the ends. Square brackets hold non-standard residues; d marks the D form. Ends that are not written are not given here. NMeL = CN[C@@H](CC(C)C)C(=O)O; Pen = CC(C)(S)[C@H](N)C(=O)O; Ava = NCCCCC(=O)O; Sar = CNCC(=O)O

Tests used:
soluble human FcRn [1] = target: T1, soluble human FcRn (human, UniProt P55899 24-297; P61769 21-119, biotinylated (Sulfo-NHS-LC-Biotin) in the ELISA; amine-coupled to CM5 chip in SPR); test: SPR, pH 7.4
T1 construct: also called shFcRn; biotinylated shFcRn
T1 sequence (P55899 24-297 limits assumed, chain 1 of 2): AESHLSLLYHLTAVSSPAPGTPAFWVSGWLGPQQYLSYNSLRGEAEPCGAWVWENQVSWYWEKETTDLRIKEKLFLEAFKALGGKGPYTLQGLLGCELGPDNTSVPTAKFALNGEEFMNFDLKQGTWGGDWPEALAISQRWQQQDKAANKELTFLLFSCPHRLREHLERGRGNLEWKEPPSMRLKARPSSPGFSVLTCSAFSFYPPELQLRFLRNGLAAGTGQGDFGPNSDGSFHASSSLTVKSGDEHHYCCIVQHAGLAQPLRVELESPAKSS
T1 sequence (P61769 21-119 limits assumed, chain 2 of 2): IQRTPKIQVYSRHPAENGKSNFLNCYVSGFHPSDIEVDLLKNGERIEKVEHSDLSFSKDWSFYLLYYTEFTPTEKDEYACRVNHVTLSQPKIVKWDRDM
Experimental: (§1) The following steps were performed to cross-link soluble human or cynomolgus FcRn to the dextran surface of a CM5 sensor chip (Biacore AB, Uppsala, Sweden) by an amine coupling reaction involving 1-ethyl-(3-dimethylaminopropyl)-carbodiimide hydrochloride (EDC) (Biacore AB, Uppsala, Sweden) and N-hydroxysuccinimide (NHS) (Biacore AB, Uppsala, Sweden) as recommended by Biacore (BIAapplications Handbook, version AB, section 4.2, Biacore AB, Uppsala, Sweden). […] Residual sites on the FcRn flow cell were blocked with 1 M ethanolamine hydrochloride pH 8.5 (Biacore AB, Uppsala, Sweden). A control flow cell was blocked with ethanolamine for reference subtraction. For analysis of the monomeric peptides, FcRn was coated to a final density of 4000-5000 response units (RU). For analysis of the peptide dimers, FcRn was coated to a density of 2000-2500 RU. All SPR measurements were performed using a BIACORE 3000 Instrument (Biacore AB Uppsala, Sweden). For measurements done at either pH 6 or pH 7.4, experiments were performed in 50 mM phosphate, 100 mM sodium chloride, 0.01% surfactant P20 (Biacore AB, Uppsala, Sweden).
(§2) Ten, 2-fold dilutions of the peptide were injected over the FcRn-CM5 chip at a rate of 20 μl/min for 2 min. The peptide was dissociated from the chip for 2.5 minutes with buffer. […] Sensorgrams were generated and analyzed using BiaEval software version 3.1 (Biacore AB, Uppsala, Sweden). […]

soluble human FcRn [2] = target: T1, soluble human FcRn; test: ELISA, competitor human IgG
Experimental: (§3) The wells were coated with 100 μl/well of 1 μg/ml biotinylated-shFcRn in Buffer A. The plate was sealed and incubated at 37° C. for 2 hours. Afterwards, the plate washed with 200 μl/well of Buffer B (Buffer B: 100 mM MES pH 6, 150 mM NaCl, 0.5% BSA IgG-free (Jackson ImmunoResearch, West Grove, Pa.), 0.05% Tween-20). […] To allow for mixing, the plate was rocked for 2 minutes, sealed and incubated at 37° C. for 2 hours. […] The plate was covered, incubated for 30 minutes at room temperature and washed 4 times with 200 μl/well of ice-cold buffer B. SureBlue TMB substrate solution (100 μl/well, KPL, Gaithersburg, Md.) was added and the plate was allowed to incubate at room temperature until color developed, which took 5 to 10 minutes. Once color developed, 100 μl/well of TMB stop solution (KPL, Gaithersburg, Md.) was added and the absorbance was measured at 450 nm. The data was plotted as absorbance vs. peptide concentration to derive the inhibitory concentration 50% (IC₅₀) values.

soluble human FcRn [3] = target: T1, soluble human FcRn; test: SPR, pH 6
Experimental: as §1, §2

soluble human FcRn [4] = target: T1, soluble human FcRn; test: SPR, pH 6; remark: listed apart in the source
Experimental: as §1
(§4) Ten, 2-fold dilutions of the peptide were injected over the FcRn-CM5 chip at a rate of 20 μl/min for 2 min. The peptide was dissociated from the chip for 2.5 minutes with buffer. Any remaining peptide was removed from the chip with a 30 second injection of HBS-P buffer (Biacore AB, Uppsala, Sweden) at a rate of 30 μl/min. Sensorgrams were generated and analyzed using BiaEval software version 3.1 (Biacore AB, Uppsala, Sweden). The equilibrium RU observed for each injection was plotted against concentration. The equilibrium KD values were derived by analysis of the plots using the steady state affinity model included in the BiaEval software.

soluble human FcRn [5] = target: T1, soluble human FcRn; test: ELISA, competitor human IgG; remark: listed apart in the source
Experimental: as §3

soluble human FcRn [6] = target: T1, soluble human FcRn; test: SPR, pH 7.4; remark: listed apart in the source
Experimental: as §1, §2

soluble human FcRn [7] = target: T1, soluble human FcRn; test: SPR, pH 6; remark: listed apart in the source
Experimental: as §1, §4

soluble human FcRn [8] = target: T1, soluble human FcRn; test: SPR, pH 7.4; remark: listed apart in the source
Experimental: as §1, §2

soluble human FcRn [9] = target: T1, soluble human FcRn; test: SPR, pH 6; remark: listed apart in the source
Experimental: as §1, §4

soluble human FcRn [10] = target: T1, soluble human FcRn; test: SPR, pH 7.4; remark: listed apart in the source
Experimental: as §1, §2

soluble human FcRn [11] = target: T1, soluble human FcRn; test: ELISA, competitor human IgG; remark: listed apart in the source
Experimental: as §3

soluble human FcRn [12] = target: T1, soluble human FcRn; test: ELISA, competitor human IgG; remark: listed apart in the source
Experimental: as §3

soluble human FcRn [13] = target: T1, soluble human FcRn; test: SPR, pH 6; remark: listed apart in the source
Experimental: as §1, §2

soluble human FcRn [14] = target: T1, soluble human FcRn; test: SPR, pH 7.4; remark: listed apart in the source
Experimental: as §1, §2

soluble human FcRn [15] = target: T1, soluble human FcRn; test: ELISA, competitor human IgG; remark: listed apart in the source
Experimental: as §3

soluble human FcRn [16] = target: T1, soluble human FcRn; test: SPR, pH 7.4; remark: listed apart in the source
Experimental: as §1, §4

soluble human FcRn [17] = target: T1, soluble human FcRn; test: ELISA, competitor human IgG; remark: listed apart in the source
Experimental: as §3

soluble human FcRn [18] = target: T1, soluble human FcRn; test: SPR, pH 6; remark: listed apart in the source
Experimental: as §1, §4

soluble human FcRn [19] = target: T1, soluble human FcRn; test: ELISA, competitor human IgG; remark: listed apart in the source
Experimental: as §3

soluble human FcRn [20] = target: T1, soluble human FcRn; test: ELISA, competitor human IgG; remark: listed apart in the source
Experimental: as §3

soluble human FcRn [21] = target: T1, soluble human FcRn; test: SPR, pH 6; remark: listed apart in the source
Experimental: as §1, §2

soluble human FcRn [22] = target: T1, soluble human FcRn; test: SPR, pH 7.4; remark: listed apart in the source
Experimental: as §1, §2

QRFCTGHFG[dA]LYPCNGP-NH2 (disulfide 4-14 (inferred)) [Peptide No. 23] was tested, and the Kd (soluble human FcRn [1]) was 184 µM and the IC50 (soluble human FcRn [2]) was 57 µM.

QRFCTGHF[dA][dA]LYPCNGP-NH2 (disulfide 4-14 (inferred)) [Peptide No. 24] was tested, and the IC50 (soluble human FcRn [2]) was 69 µM and the Kd (soluble human FcRn [3]) was 22 µM.

Work on QRFXTGHFGGLYPENGP (Dab at 4; side-chain lactam bridge Dab 4-Glu 14; C-terminal amide) [Peptide No. 72] yielded a Kd (soluble human FcRn [4]) of 4.8 µM and an IC50 (soluble human FcRn [5]) of 81 µM.

Binder QRFXTGHFGGLYPDNGP (Dab at 4; side-chain lactam bridge Dab 4-Asp 14; C-terminal amide) [Peptide No. 81] has a Kd (soluble human FcRn [4]) of 8.4 µM and a Kd (soluble human FcRn [6]) of 45 µM.

Work on QRFXTGHFGGHYPCNGP (Pen at 4; disulfide; C-terminal amide) [Peptide No. 84] yielded a Kd (soluble human FcRn [7]) of 0.38 µM and a Kd (soluble human FcRn [8]) of 2.5 µM.

B1: Peptide No. 296 (peptide)
peptide: QRF[Pen]HGHFGGLYPCNGP-NH2
modifications: disulfide 4-14; N-terminus assumed
SMILES: CC(C)C[C@@H]1NC(=O)CNC(=O)CNC(=O)[C@H](Cc2ccccc2)NC(=O)[C@H](Cc2c[nH]cn2)NC(=O)CNC(=O)[C@H](Cc2c[nH]cn2)NC(=O)[C@@H](NC(=O)[C@H](Cc2ccccc2)NC(=O)[C@H](CCCNC(=N)N)NC(=O)[C@@H](N)CCC(N)=O)C(C)(C)SSC[C@@H](C(=O)N[C@@H](CC(N)=O)C(=O)NCC(=O)N2CCC[C@H]2C(N)=O)NC(=O)[C@@H]2CCCN2C(=O)[C@H](Cc2ccc(O)cc2)NC1=O
For B1, the Kd (soluble human FcRn [9]) was 0.15 µM, the Kd (soluble human FcRn [10]) was 0.96 µM and the IC50 (soluble human FcRn [11]) was 3 µM.

RFXTGHFGPLYPC (Pen at 3; D-Pro at 9; disulfide; C-terminal amide) [Peptide No. 142] gave an IC50 (soluble human FcRn [12]) of 1.5 µM and a Kd (soluble human FcRn [13]) of 0.14 µM.

In the case of QRFXTGHFGGLXPCNGP (Pen at 4; 4-fluoro-Phe at 12; disulfide; C-terminal amide) [Peptide No. 140], the Kd (soluble human FcRn [14]) is reported as 24 µM and the IC50 (soluble human FcRn [15]) is reported as 26 µM.

B2: Peptide No. 35 (peptide)
peptide: QRFCTGHF[Ava]LYPCNGP-NH2
modifications: disulfide 4-13; N-terminus assumed
SMILES: CC(C)C[C@@H]1NC(=O)CCCCNC(=O)[C@H](Cc2ccccc2)NC(=O)[C@H](Cc2c[nH]cn2)NC(=O)CNC(=O)[C@H]([C@@H](C)O)NC(=O)[C@@H](NC(=O)[C@H](Cc2ccccc2)NC(=O)[C@H](CCCNC(=N)N)NC(=O)[C@@H](N)CCC(N)=O)CSSC[C@@H](C(=O)N[C@@H](CC(N)=O)C(=O)NCC(=O)N2CCC[C@H]2C(N)=O)NC(=O)[C@@H]2CCCN2C(=O)[C@H](Cc2ccc(O)cc2)NC1=O
B2 was tested, and the IC50 (soluble human FcRn [2]) was > 125 µM.

B3: Peptide No. 80 (peptide)
peptide: QRFKTGHFGGLYPDNGP-NH2
modifications: lactam 4-14; N-terminus assumed
SMILES: CC(C)C[C@@H]1NC(=O)CNC(=O)CNC(=O)[C@H](Cc2ccccc2)NC(=O)[C@H](Cc2c[nH]cn2)NC(=O)CNC(=O)[C@H]([C@@H](C)O)NC(=O)[C@@H](NC(=O)[C@H](Cc2ccccc2)NC(=O)[C@H](CCCNC(=N)N)NC(=O)[C@@H](N)CCC(N)=O)CCCCNC(=O)C[C@@H](C(=O)N[C@@H](CC(N)=O)C(=O)NCC(=O)N2CCC[C@H]2C(N)=O)NC(=O)[C@@H]2CCCN2C(=O)[C@H](Cc2ccc(O)cc2)NC1=O
In the case of B3, the IC50 (soluble human FcRn [5]) is reported as 60 µM and the Kd (soluble human FcRn [6]) is reported as 52 µM.

B4: Peptide No. 105 (peptide)
peptide: QRFDTGHFG[dA]LYPKNGP-NH2
modifications: lactam 4-14; N-terminus assumed
SMILES: CC(C)C[C@@H]1NC(=O)[C@@H](C)NC(=O)CNC(=O)[C@H](Cc2ccccc2)NC(=O)[C@H](Cc2c[nH]cn2)NC(=O)CNC(=O)[C@H]([C@@H](C)O)NC(=O)[C@@H](NC(=O)[C@H](Cc2ccccc2)NC(=O)[C@H](CCCNC(=N)N)NC(=O)[C@@H](N)CCC(N)=O)CC(=O)NCCCC[C@@H](C(=O)N[C@@H](CC(N)=O)C(=O)NCC(=O)N2CCC[C@H]2C(N)=O)NC(=O)[C@@H]2CCCN2C(=O)[C@H](Cc2ccc(O)cc2)NC1=O
B4 showed a Kd (soluble human FcRn [4]) of 2.1 µM.

B5: Peptide No. 177 (peptide)
peptide: QRFVTGHFG[dP]WYPANGP-NH2
modifications: N-terminus assumed
SMILES: CC(C)[C@H](NC(=O)[C@H](Cc1ccccc1)NC(=O)[C@H](CCCNC(=N)N)NC(=O)[C@@H](N)CCC(N)=O)C(=O)N[C@H](C(=O)NCC(=O)N[C@@H](Cc1c[nH]cn1)C(=O)N[C@@H](Cc1ccccc1)C(=O)NCC(=O)N1CCC[C@@H]1C(=O)N[C@@H](Cc1c[nH]c2ccccc12)C(=O)N[C@@H](Cc1ccc(O)cc1)C(=O)N1CCC[C@H]1C(=O)N[C@@H](C)C(=O)N[C@@H](CC(N)=O)C(=O)NCC(=O)N1CCC[C@H]1C(N)=O)[C@@H](C)O
In the case of B5, the Kd (soluble human FcRn [16]) is reported as 96 µM, the IC50 (soluble human FcRn [17]) is reported as 52 µM and the Kd (soluble human FcRn [18]) is reported as 5.8 µM.

B6: Peptide No. 236 (peptide)
peptide: RFVTGHFG[Sar][NMeL]YPA-NH2
modifications: N-terminus assumed
SMILES: CC(C)C[C@@H](C(=O)N[C@@H](Cc1ccc(O)cc1)C(=O)N1CCC[C@H]1C(=O)N[C@@H](C)C(N)=O)N(C)C(=O)CN(C)C(=O)CNC(=O)[C@H](Cc1ccccc1)NC(=O)[C@H](Cc1c[nH]cn1)NC(=O)CNC(=O)[C@@H](NC(=O)[C@@H](NC(=O)[C@H](Cc1ccccc1)NC(=O)[C@@H](N)CCCNC(=N)N)C(C)C)[C@@H](C)O
Work on B6 yielded a Kd (soluble human FcRn [16]) of 9 µM, an IC50 (soluble human FcRn [19]) of 37 µM and an IC50 (soluble human FcRn [17]) of 37 µM.

B7: Peptide No. 100 (peptide)
peptide: QRFDTGHFGGLYPKNGP
modifications: also: N-termini joined through a bis-thiol linker (bromoacetylated peptide), bridge as drawn, places not given here
For B7, the IC50 (soluble human FcRn [20]) was 0.76 µM, the Kd (soluble human FcRn [21]) was 0.006 µM and the Kd (soluble human FcRn [22]) was 0.13 µM.

B8: Peptide No. 122 (peptide)
peptide: QRFDTGHFGGLYPKNGP
modifications: also: bromoacetylated peptide joined to a SATP-derivatized peptide (dimer), further groups not given here
B8 gave an IC50 (soluble human FcRn [20]) of 0.97 µM, a Kd (soluble human FcRn [21]) of 0.006 µM and a Kd (soluble human FcRn [22]) of 0.12 µM.
